In paper PMC5640506 (2017):

Key:
K63 diUb = K63 diUb (Homo sapiens); test: MST
K11-linked diUb [1] = biological target: T1, K11-linked diUb (UniProt P0CG47 1-76, K11-linked: one Ub is ubiquitinated on the side chain of K11); test: MST
K48 diUb = K48 diUb (Homo sapiens); test: MST
K33-linked diUb = K33-linked diUb (UniProt P0CG47 1-76, K33-linked: one Ub is ubiquitinated on the side chain of K33); test: MST
K29 diUb = K29 diUb (Homo sapiens); test: MST
K11-linked diUb [2] = biological target: T1, K11-linked diUb; test: ITC
K6-linked diUb = K6-linked diUb (UniProt P0CG47 1-76, K6-linked: one Ub is ubiquitinated on the side chain of K6); test: MST

B1: dimerized K6 affimer, fluorescently labelled (designed binder)
chain: ENSLEIEELARFAVDEHNKKENALLEFVRVVKAKEQSWKDDELFDTMYYLTLEAKDGGKKKLYEAKVWVKASGIVMYQMNFKELQEFKPVENSLEIEELARFAVDEHNKKENALLEFVRVVKAKEQSWKDDELFDTMYYLTLEAKDGGKKKLYEAKVWVKASGIVMYQMNFKELQEFKPV
modifications: Alexa488-maleimide or NT-647-maleimide on a single cysteine
B1 was tested. Which Kd (K63 diUb) did it give?
Its Kd is 130 µM.

What about the Kd (K11-linked diUb [1]) of the same binder?
The Kd was 49 µM.

And the Kd (K48 diUb)?
Its Kd is 82 µM.

And the Kd (K33-linked diUb)?
The Kd was 120 µM.

What about the Kd (K29 diUb) of the same binder?
Its Kd is 55 µM.

B2: K33 affimer (designed binder)
chain: MSAATGVRAVPGNENSLEIEELARFAVDEHNKKENALLEFVRVVKAKEQIWEMDASKETMYYLTLEAKDGGKKKLYEAKVWVKMTHWIGAMNNFKELQEFKPVGDAAAAHHHHHHG
How did the Kd (K11-linked diUb [2]) turn out when B2 was run?
The Kd was 0.007 µM.

B3: dimerized K33/K11 affimer, fluorescently labelled (designed binder)
chain: ENSLEIEELARFAVDEHNKKENALLEFVRVVKAKEQIWEMDASKETMYYLTLEAKDGGKKKLYEAKVWVKMTHWIGAMNNFKELQEFKPVENSLEIEELARFAVDEHNKKENALLEFVRVVKAKEQIWEMDASKETMYYLTLEAKDGGKKKLYEAKVWVKMTHWIGAMNNFKELQEFKPV
modifications: Alexa488-maleimide or NT-647-maleimide on a single cysteine
With B3 as the binder, how does the Kd (K63 diUb) read?
The Kd was 83 µM.

What about the Kd (K48 diUb) of the same binder?
The Kd was 120 µM.

And the Kd (K29 diUb)?
The Kd was 61 µM.

And the Kd (K6-linked diUb)?
Its Kd is 210 µM.
